Test results taken from patent publication US20210388087A1 (Chugai, published 2021).

Molecular target: T1, Human CD137 ECD (human)
T1 construct: also called 4-1BB
Test: single mutant vs template dBBDu183H

T1 sequence (chain, as listed by the source limits assumed): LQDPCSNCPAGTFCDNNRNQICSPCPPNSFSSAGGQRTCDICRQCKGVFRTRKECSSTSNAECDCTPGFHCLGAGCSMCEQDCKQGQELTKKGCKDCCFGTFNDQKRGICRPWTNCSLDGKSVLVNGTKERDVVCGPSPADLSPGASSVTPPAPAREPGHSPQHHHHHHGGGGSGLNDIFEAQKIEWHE

fold change of affinity [fold]	Binder
0.1	H183/L072 VH I51A (antibody, name in Kabat numbering, V domains shown) VH: QVQLVESGGGLVQPGRSLRLSCAASGFTFSNAWMHWVRQAPGKGLEWVAQAKDKGNAYAAYYAPSVKGRFTISRDDSKNSIYLQMNSLKTEDTAVYYCHYVHYASASTVLPAFGVDAWGQGTTVTVSS VL: DIVMTQSPLSLPVTPGEPASISCQASQELVHMNRNTYLHWYQQKPGQAPRLLIYKVSNRFPGVPDRFSGSGSGTDFTLKISRVEAEDVGVYYCAQGTSVPFTFGQGTKLEIK
0.4	H183/L072 VH I51S (antibody, name in Kabat numbering, V domains shown) VH: QVQLVESGGGLVQPGRSLRLSCAASGFTFSNAWMHWVRQAPGKGLEWVAQSKDKGNAYAAYYAPSVKGRFTISRDDSKNSIYLQMNSLKTEDTAVYYCHYVHYASASTVLPAFGVDAWGQGTTVTVSS VL: DIVMTQSPLSLPVTPGEPASISCQASQELVHMNRNTYLHWYQQKPGQAPRLLIYKVSNRFPGVPDRFSGSGSGTDFTLKISRVEAEDVGVYYCAQGTSVPFTFGQGTKLEIK
0.1	H183/L072 VH K52L (antibody, name in Kabat numbering, V domains shown) VH: QVQLVESGGGLVQPGRSLRLSCAASGFTFSNAWMHWVRQAPGKGLEWVAQILDKGNAYAAYYAPSVKGRFTISRDDSKNSIYLQMNSLKTEDTAVYYCHYVHYASASTVLPAFGVDAWGQGTTVTVSS VL: DIVMTQSPLSLPVTPGEPASISCQASQELVHMNRNTYLHWYQQKPGQAPRLLIYKVSNRFPGVPDRFSGSGSGTDFTLKISRVEAEDVGVYYCAQGTSVPFTFGQGTKLEIK
0.1	H183/L072 VH I51G (antibody, name in Kabat numbering, V domains shown) VH: QVQLVESGGGLVQPGRSLRLSCAASGFTFSNAWMHWVRQAPGKGLEWVAQGKDKGNAYAAYYAPSVKGRFTISRDDSKNSIYLQMNSLKTEDTAVYYCHYVHYASASTVLPAFGVDAWGQGTTVTVSS VL: DIVMTQSPLSLPVTPGEPASISCQASQELVHMNRNTYLHWYQQKPGQAPRLLIYKVSNRFPGVPDRFSGSGSGTDFTLKISRVEAEDVGVYYCAQGTSVPFTFGQGTKLEIK
0.2	H183/L072 VH I51M (antibody, name in Kabat numbering, V domains shown) VH: QVQLVESGGGLVQPGRSLRLSCAASGFTFSNAWMHWVRQAPGKGLEWVAQMKDKGNAYAAYYAPSVKGRFTISRDDSKNSIYLQMNSLKTEDTAVYYCHYVHYASASTVLPAFGVDAWGQGTTVTVSS VL: DIVMTQSPLSLPVTPGEPASISCQASQELVHMNRNTYLHWYQQKPGQAPRLLIYKVSNRFPGVPDRFSGSGSGTDFTLKISRVEAEDVGVYYCAQGTSVPFTFGQGTKLEIK
0.7	H183/L072 VH K52bH (antibody, name in Kabat numbering, V domains shown) VH: QVQLVESGGGLVQPGRSLRLSCAASGFTFSNAWMHWVRQAPGKGLEWVAQIKDHGNAYAAYYAPSVKGRFTISRDDSKNSIYLQMNSLKTEDTAVYYCHYVHYASASTVLPAFGVDAWGQGTTVTVSS VL: DIVMTQSPLSLPVTPGEPASISCQASQELVHMNRNTYLHWYQQKPGQAPRLLIYKVSNRFPGVPDRFSGSGSGTDFTLKISRVEAEDVGVYYCAQGTSVPFTFGQGTKLEIK
1	H183/L072 VH I51V (antibody, name in Kabat numbering, V domains shown) VH: QVQLVESGGGLVQPGRSLRLSCAASGFTFSNAWMHWVRQAPGKGLEWVAQVKDKGNAYAAYYAPSVKGRFTISRDDSKNSIYLQMNSLKTEDTAVYYCHYVHYASASTVLPAFGVDAWGQGTTVTVSS VL: DIVMTQSPLSLPVTPGEPASISCQASQELVHMNRNTYLHWYQQKPGQAPRLLIYKVSNRFPGVPDRFSGSGSGTDFTLKISRVEAEDVGVYYCAQGTSVPFTFGQGTKLEIK
0.1	H183/L072 VH I51L (antibody, name in Kabat numbering, V domains shown) VH: QVQLVESGGGLVQPGRSLRLSCAASGFTFSNAWMHWVRQAPGKGLEWVAQLKDKGNAYAAYYAPSVKGRFTISRDDSKNSIYLQMNSLKTEDTAVYYCHYVHYASASTVLPAFGVDAWGQGTTVTVSS VL: DIVMTQSPLSLPVTPGEPASISCQASQELVHMNRNTYLHWYQQKPGQAPRLLIYKVSNRFPGVPDRFSGSGSGTDFTLKISRVEAEDVGVYYCAQGTSVPFTFGQGTKLEIK
0.2	H183/L072 VH K52N (antibody, name in Kabat numbering, V domains shown) VH: QVQLVESGGGLVQPGRSLRLSCAASGFTFSNAWMHWVRQAPGKGLEWVAQINDKGNAYAAYYAPSVKGRFTISRDDSKNSIYLQMNSLKTEDTAVYYCHYVHYASASTVLPAFGVDAWGQGTTVTVSS VL: DIVMTQSPLSLPVTPGEPASISCQASQELVHMNRNTYLHWYQQKPGQAPRLLIYKVSNRFPGVPDRFSGSGSGTDFTLKISRVEAEDVGVYYCAQGTSVPFTFGQGTKLEIK
0.3	H183/L072 VH K52Q (antibody, name in Kabat numbering, V domains shown) VH: QVQLVESGGGLVQPGRSLRLSCAASGFTFSNAWMHWVRQAPGKGLEWVAQIQDKGNAYAAYYAPSVKGRFTISRDDSKNSIYLQMNSLKTEDTAVYYCHYVHYASASTVLPAFGVDAWGQGTTVTVSS VL: DIVMTQSPLSLPVTPGEPASISCQASQELVHMNRNTYLHWYQQKPGQAPRLLIYKVSNRFPGVPDRFSGSGSGTDFTLKISRVEAEDVGVYYCAQGTSVPFTFGQGTKLEIK
0.3	H183/L072 VH I51T (antibody, name in Kabat numbering, V domains shown) VH: QVQLVESGGGLVQPGRSLRLSCAASGFTFSNAWMHWVRQAPGKGLEWVAQTKDKGNAYAAYYAPSVKGRFTISRDDSKNSIYLQMNSLKTEDTAVYYCHYVHYASASTVLPAFGVDAWGQGTTVTVSS VL: DIVMTQSPLSLPVTPGEPASISCQASQELVHMNRNTYLHWYQQKPGQAPRLLIYKVSNRFPGVPDRFSGSGSGTDFTLKISRVEAEDVGVYYCAQGTSVPFTFGQGTKLEIK
0.9	H183/L072 VH K52bG (antibody, name in Kabat numbering, V domains shown) VH: QVQLVESGGGLVQPGRSLRLSCAASGFTFSNAWMHWVRQAPGKGLEWVAQIKDGGNAYAAYYAPSVKGRFTISRDDSKNSIYLQMNSLKTEDTAVYYCHYVHYASASTVLPAFGVDAWGQGTTVTVSS VL: DIVMTQSPLSLPVTPGEPASISCQASQELVHMNRNTYLHWYQQKPGQAPRLLIYKVSNRFPGVPDRFSGSGSGTDFTLKISRVEAEDVGVYYCAQGTSVPFTFGQGTKLEIK
0.1	H183/L072 VH I51K (antibody, name in Kabat numbering, V domains shown) VH: QVQLVESGGGLVQPGRSLRLSCAASGFTFSNAWMHWVRQAPGKGLEWVAQKKDKGNAYAAYYAPSVKGRFTISRDDSKNSIYLQMNSLKTEDTAVYYCHYVHYASASTVLPAFGVDAWGQGTTVTVSS VL: DIVMTQSPLSLPVTPGEPASISCQASQELVHMNRNTYLHWYQQKPGQAPRLLIYKVSNRFPGVPDRFSGSGSGTDFTLKISRVEAEDVGVYYCAQGTSVPFTFGQGTKLEIK
0.2	H183/L072 VH I51N (antibody, name in Kabat numbering, V domains shown) VH: QVQLVESGGGLVQPGRSLRLSCAASGFTFSNAWMHWVRQAPGKGLEWVAQNKDKGNAYAAYYAPSVKGRFTISRDDSKNSIYLQMNSLKTEDTAVYYCHYVHYASASTVLPAFGVDAWGQGTTVTVSS VL: DIVMTQSPLSLPVTPGEPASISCQASQELVHMNRNTYLHWYQQKPGQAPRLLIYKVSNRFPGVPDRFSGSGSGTDFTLKISRVEAEDVGVYYCAQGTSVPFTFGQGTKLEIK
0.5	H183/L072 VH K52bE (antibody, name in Kabat numbering, V domains shown) VH: QVQLVESGGGLVQPGRSLRLSCAASGFTFSNAWMHWVRQAPGKGLEWVAQIKDEGNAYAAYYAPSVKGRFTISRDDSKNSIYLQMNSLKTEDTAVYYCHYVHYASASTVLPAFGVDAWGQGTTVTVSS VL: DIVMTQSPLSLPVTPGEPASISCQASQELVHMNRNTYLHWYQQKPGQAPRLLIYKVSNRFPGVPDRFSGSGSGTDFTLKISRVEAEDVGVYYCAQGTSVPFTFGQGTKLEIK
0.2	H183/L072 VH K52R (antibody, name in Kabat numbering, V domains shown) VH: QVQLVESGGGLVQPGRSLRLSCAASGFTFSNAWMHWVRQAPGKGLEWVAQIRDKGNAYAAYYAPSVKGRFTISRDDSKNSIYLQMNSLKTEDTAVYYCHYVHYASASTVLPAFGVDAWGQGTTVTVSS VL: DIVMTQSPLSLPVTPGEPASISCQASQELVHMNRNTYLHWYQQKPGQAPRLLIYKVSNRFPGVPDRFSGSGSGTDFTLKISRVEAEDVGVYYCAQGTSVPFTFGQGTKLEIK
0.3	H183/L072 VH K52M (antibody, name in Kabat numbering, V domains shown) VH: QVQLVESGGGLVQPGRSLRLSCAASGFTFSNAWMHWVRQAPGKGLEWVAQIMDKGNAYAAYYAPSVKGRFTISRDDSKNSIYLQMNSLKTEDTAVYYCHYVHYASASTVLPAFGVDAWGQGTTVTVSS VL: DIVMTQSPLSLPVTPGEPASISCQASQELVHMNRNTYLHWYQQKPGQAPRLLIYKVSNRFPGVPDRFSGSGSGTDFTLKISRVEAEDVGVYYCAQGTSVPFTFGQGTKLEIK
0	H183/L072 VH I51Y (antibody, name in Kabat numbering, V domains shown) VH: QVQLVESGGGLVQPGRSLRLSCAASGFTFSNAWMHWVRQAPGKGLEWVAQYKDKGNAYAAYYAPSVKGRFTISRDDSKNSIYLQMNSLKTEDTAVYYCHYVHYASASTVLPAFGVDAWGQGTTVTVSS VL: DIVMTQSPLSLPVTPGEPASISCQASQELVHMNRNTYLHWYQQKPGQAPRLLIYKVSNRFPGVPDRFSGSGSGTDFTLKISRVEAEDVGVYYCAQGTSVPFTFGQGTKLEIK
0.7	H183/L072 VH K52bF (antibody, name in Kabat numbering, V domains shown) VH: QVQLVESGGGLVQPGRSLRLSCAASGFTFSNAWMHWVRQAPGKGLEWVAQIKDFGNAYAAYYAPSVKGRFTISRDDSKNSIYLQMNSLKTEDTAVYYCHYVHYASASTVLPAFGVDAWGQGTTVTVSS VL: DIVMTQSPLSLPVTPGEPASISCQASQELVHMNRNTYLHWYQQKPGQAPRLLIYKVSNRFPGVPDRFSGSGSGTDFTLKISRVEAEDVGVYYCAQGTSVPFTFGQGTKLEIK
1	H183/L072 VH K52bA (antibody, name in Kabat numbering, V domains shown) VH: QVQLVESGGGLVQPGRSLRLSCAASGFTFSNAWMHWVRQAPGKGLEWVAQIKDAGNAYAAYYAPSVKGRFTISRDDSKNSIYLQMNSLKTEDTAVYYCHYVHYASASTVLPAFGVDAWGQGTTVTVSS VL: DIVMTQSPLSLPVTPGEPASISCQASQELVHMNRNTYLHWYQQKPGQAPRLLIYKVSNRFPGVPDRFSGSGSGTDFTLKISRVEAEDVGVYYCAQGTSVPFTFGQGTKLEIK
0	H183/L072 VH K52Y (antibody, name in Kabat numbering, V domains shown) VH: QVQLVESGGGLVQPGRSLRLSCAASGFTFSNAWMHWVRQAPGKGLEWVAQIYDKGNAYAAYYAPSVKGRFTISRDDSKNSIYLQMNSLKTEDTAVYYCHYVHYASASTVLPAFGVDAWGQGTTVTVSS VL: DIVMTQSPLSLPVTPGEPASISCQASQELVHMNRNTYLHWYQQKPGQAPRLLIYKVSNRFPGVPDRFSGSGSGTDFTLKISRVEAEDVGVYYCAQGTSVPFTFGQGTKLEIK
